Experimental data as given in paper PMC2955668.

Assays:
SF2-HFNef (HIV-1 (SF2)) [1] = target: SF2-HFNef (HIV-1 (SF2)) (UniProt P03407); experiment: co-IP; membrane-associated protein fraction of co-transfected 293T cells, solubilised in Buffer B plus 0.5% IGEPAL CA-630; anti-HA monoclonal antibody precipitates the HF-tagged Nef, untagged Nef detected by Western blot; fractional dimerization (FD) estimated from band densities assuming strict dimers and a binomial distribution
NA7-HFNef (HIV-1 (NA7)) [2] = experiment: as above
SF2-HFNef (HIV-1 (SF2)) [3] = target: SF2-HFNef (HIV-1 (SF2)) (UniProt P03407); experiment: co-IP; cytosolic (soluble, high speed supernatant) fraction of co-transfected 293T cells in Buffer B; anti-HA monoclonal antibody precipitates the HF-tagged Nef, untagged Nef detected by Western blot; FD estimated from band densities
NA7-HFNef (HIV-1 (NA7)) [4] = experiment: as above
[5] = target: SIV_(MAC239)-HFNef (SIVmac239); experiment: co-IP; membrane-associated protein fraction of co-transfected 293T cells, solubilised in Buffer B plus 0.5% IGEPAL CA-630; anti-HA monoclonal antibody precipitates the HF-tagged Nef, untagged Nef detected by Western blot; fractional dimerization (FD) estimated from band densities assuming strict dimers and a binomial distribution

UniProt P03407, sequence (P03407 whole entry): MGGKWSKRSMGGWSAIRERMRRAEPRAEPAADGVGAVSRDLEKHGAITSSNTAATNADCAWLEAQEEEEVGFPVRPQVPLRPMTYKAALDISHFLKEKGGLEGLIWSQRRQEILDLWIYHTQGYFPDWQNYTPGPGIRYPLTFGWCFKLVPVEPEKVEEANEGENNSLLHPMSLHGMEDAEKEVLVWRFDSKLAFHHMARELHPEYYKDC

Substance | fractional dimerization (FD) (SF2-HFNef (HIV-1 (SF2)) [1]) | fractional dimerization (FD) (NA7-HFNef (HIV-1 (NA7)) [2]) | fractional dimerization (FD) (SF2-HFNef (HIV-1 (SF2)) [3]) | fractional dimerization (FD) (NA7-HFNef (HIV-1 (NA7)) [4]) | fractional dimerization (FD) [5]
NA7Nef (natural protein) | 0.48 | 0.52 | 0.23 | 0.35 | 
SIV_(MAC239)Nef (natural protein) |  |  |  |  | 0.37
